Laboratory results taken from US20220098328A1, “ANTIBODIES TO M(H)DM2/4 AND THEIR USE IN DIAGNOSING AND TREATING CANCER” (NomoCan Pharmaceuticals LLC, priority 2017, published 2022).
Numbering of substitutions follows the chain as printed. “Also recorded” adds a separate entry of the source.

B1: NMC-204: mouse monoclonal antibody of the IgG3 isotype that binds to NMC-P2 (SEQ ID NO:2); VH SEQ ID NO:38, VL SEQ ID NO:39 (antibody, V domains shown)
VH: EVQLQESGSVLVRPGASVKLSCKASGDTLSGSWMHWAMQRPGQGLEWIGEIHLNRGTTNYNEKFKGKATVTVDTSSSTAYVDLSSLTSEDSAVYYCARSPGFAYWGQGTLVTVSA
VL: GIVMTQAAPSVPVTPGESVSISCRSSKSLLHSNGNSYLYWFLQRPGQSPQLLIYRMSNLASGVPDRFSGSGSGTAFTLRITRVEAEDVGVYYCMQHLEYPFTFGSGTKLEIK
modifications: mAb NMC-204 Heavy Chain Variable Region; mAb NMC-204 Light Chain Variable Region
B2: NMC-103: mouse monoclonal antibody of the IgG1 isotype that binds to NMC-P1 (SEQ ID NO:1); VH SEQ ID NO:36, VL SEQ ID NO:37 (antibody, V domains shown)
VH: EVQLQESGGGLVQPGGSLRLSCTTSGFTFTHYYMSWVRQPPGKALEWLGFIRNKAKGYTAEYSASVKGRFTISRDNSQSILYLQMNTLRPEDSATYYCARDIGDNWGQGTLVTVSS
VL: DIVMTQAAFSNPVTLGTSASISCRSSKNLLHSNGITYLYWYLQRPGQSPQLLISRVSNLASGVPNRFSGSESGTDFTLRISRVEAEDVGVYFCAQLLELPYTFGGGTKLEIK
modifications: mAb NMC-103 Heavy Chain Variable Region; mAb NMC-103 Light Chain Variable Region
B3: NMC-H103 (VH4/VK3): humanized NMC-103 variant, human IgG1, VH4 (SEQ ID NO:299) and VK3 (SEQ ID NO:297) (antibody, V domains shown)
VH: B2 VH with Q5V, G16P, P40A, A44G, Q78K, I80T, T87S, P90A, S93T, T95V
VL: B2 VL with A7T, A8P, F9L, N11S, T17Q, S18P, R44K, N65D, R79K, L109V
modifications: human IgG1 constant regions lacking entries; mAb NMC-H103.VH4Heavy Chain Variable Region; mAb NMC-H103.VK3Light Chain Variable Region

Columns and labels:
[1] = target: NMC-P1 peptide (SEQ ID NO:1), amino acids 1-15 of HDM2 (Homo sapiens, UniProt Q00987); test: Peptide-ELISA; format: binding; details: for binding to NMC-P1 peptide: peptide-ELISA, 5 μg/ml peptide on plate, OD 450 nm
Experimental: Peptide-ELISA Methodology: 5 μg/ml of NMC-P1, NMC-P2 or NMC-P3 peptide antigen was dried onto a 96-well ELISA plate overnight. Plates were then blocked with 5% BSA in 1× phosphate-buffered saline (PBS) (100 μl/well) for 2 hours at room temperature. Microplate wells were then washed 5 times with 300 μl of ice cold 1×PBS. Appropriate dilutions of monoclonal antibodies NMC-103, NMC-204 or NMC-303 in 1% bovine serum albumin (BSA) in PBS solution were then incubated with their corresponding peptides (NMC-P1, NMC-P2 or NMC-P3, respectively) at room temperature. After 2 hours, wells were washed 5 times with 300 μl ice-cold PBS/well and 100 μl secondary antibody (HRP-labeled Goat anti-Mouse F(ab′)2 H&L cross-adsorbed secondary antibody (HRP-GaM F(ab′)2), ThermoFisher, Cat. No. A24524) diluted 1:2500 to 1:5000 in PBS-1% BSA solution were added and the incubation continued at room temperature. After 1 hour, the wells were washed again 5 times with 200 μl of ice-cold PBS and 50 μL of the TMB Substrate Solution (1-Step™ Ultra TMB-ELISA, ThermoFisher, Cat. No. 34028) were added to each well and color was allowed to develop for 30 minutes at room temperature. The reaction was stopped by addition of 50 μL of stop solution (ThermoFisher, Cat. No. SS04) to each well and absorbance of each well was read immediately for optical density (OD) at 450 nm.
Competition assays: As for peptide antigen binding competition experiments, […] of mAb NMC-103 was pre-incubated with 10 μl/ml of NMC-P1, NMC-P2 or NMC-P3 for 1 hour at room temperature. MAb NMC-103 was then incubated with ELISA plates coated with NMC-P1 as described above.

[2] = test system: human pancreatic cancer MIAPaCa-2 cells; test: In vitro growth inhibition (cell count); format: cell-based; details: overnight, MIAPaCa-2 8,000 cells/well
Experimental: Methodology used: Human pancreatic cancer MIAPaCa-2 cells (8,000 cells/well) were pre-incubated with mAb NMC-103, NMC-204 and anti-Cytochrome-C antibody (Santa Cruz, Cat No. sc-13156) at 1, 5 and 10 μg/mL, respectively. Cells in the presence of one of the antibodies at various concentrations were then plated in triplicate in 96-well cell culture plates overnight. The next day, each plate well was analyzed morphologically and a picture was taken from each well using EVOS FL microscope. Cell count was also performed and the number of living cells was graphed as % of control.

[3] = test system: mouse Lewis Lung LL/2 cancer cells; test: Flow cytometry (EDTA vs trypsin, intact vs permeabilized); format: cell-based; details: for % cells stained: 5 μg/ml antibody; for staining of trypsin-treated permeabilized cells: reduction in binding after trypsin vs reactivity with intracellular target
Experimental: Flow Cytometry Methodology: Cells that had been allowed to grow to about 80% confluency in 25 cm^2 tissue culture flasks were released with either EDTA (10 mmols; pH7.2; 5 min, 37° C.) or Trypsin (Gibco TrypLE Express), fixed with freshly made 4% buffered (pH 7.4) paraformaldehyde for 1 h at room temperature, washed several times with a large volume of ice-cold PBS, and blocked for 30 minutes at room temperature with 5% human serum albumin in PBS (intact, non-permeabilized cells). After establishing viability, the cell number was adjusted to 10^6 cells/ml and kept in ice-cold PBS until staining. Another set of the same cells was released with either EDTA or Trypsin and fixed with 4% buffered paraformaldehyde as above, then washed and blocked with 5% human serum albumin in PBS, and was treated separately with Triton X-100 (0.1% in PBS) (International Biotechnologies Inc. 07100) for 5 minutes at room temperature for membrane permeabilization. After washing off the Triton X-100 solution with PBS the cells were adjusted to 10^6 cells/ml and stored in ice-cold PBS. Cells (10^6/ml) from each preparation were then incubated either with 5 μg/ml of mAb to Na+/K+ ATPase α-1 (Abcam, Cat. No. ab2826), 5 μg/ml of mAb NMC-103, or 5 μg/ml of mAb NMC-204 for 90 min at room temperature. Following primary antibody incubation, cells were washed 3 times with ice-cold PBS followed by incubation with rabbit anti-mouse PE-Cy5 labeled secondary antibody (PE-Cy5-RaM IgG (H&L); Invitrogen, Cat. No. M35018) at room temperature. Sixty minutes later the cells were washed 3 times with PBS and subjected to flow cytometry analysis (BD Canto Flow Cytometry). Controls to establish background fluorescence included the analysis of samples of unstained cells as well as cells that had been processed with secondary antibody under the same conditions as used in the experimental samples.
Cells that had been allowed to grow to about 80% confluency in 75 cm^2 tissue culture flasks were released with either EDTA (10 mmols; pH 7.2; 5 min, 37° C.) or Trypsin (Gibco TrypLE Express), washed several times with ice-cold PBS, and blocked for 20 minutes on ice with 5% human serum albumin in PBS (intact, non-permeabilized cells). After establishing viability, the cell number was adjusted to 10^6 cells/ml and kept in ice-cold PBS until staining. Cells were then incubated with primary antibodies NMC-H103 (VH4/VK3) or NMC-C303 (1 μg/ml) for 30 minutes on ice. Following primary antibody incubation, cells were washed 3 times with ice-cold PBS, followed by incubation with goat anti-human PE labeled secondary antibody (Life technologies H10104) on ice for 20 minutes. Cells were then washed 3 times with PBS and incubated with 7AAD (5 μl/[…] of buffer) before flow cytometry analysis using Fortessa 5.

[4] = target: T1, recombinant HDM2 protein (GST tagged) (Homo sapiens, UniProt Q00987); test: Western blot (immunoblot); format: binding; details: 1 μg/well protein, antibody 1 μg/ml; band at approximately 83 kD
T1 construct: NMC-103, NMC-204 and NMC-303 reacted with the recombinant full-length HDM2 protein; purchased Abcam ab188727
Experimental: Western Blot: As for immunoblots, 1 μg/well of recombinant HDM2 protein (GST tagged, Abcam, Cat. No. ab188727) was separated on 8-16% sodium dodecyl sulfate (SDS) polyacrylamide gel and proteins were then transferred to polyvinylidene difluoride (PVDF) membrane. The membrane was blocked with 5% milk followed by incubation with monoclonal antibody NMC-103, NMC-204 or NMC-303 at 1 μg/ml in 1% milk in PBS for 2 hours. The membrane was then washed ×3 times (10 minutes each) and incubated for 1 hour with corresponding HRP-conjugated secondary antibody (Goat anti-Mouse IgG (H&L), F(ab′)2 Frag Cross-adsorbed HRP (HRP-GaM F(ab′)2), ThermoFisher, Cat. No. A24524) diluted 1:5000 in 1% BSA-PBS. The membrane was then washed ×3 times and incubated with Pierce ECL Plus Western Blotting Substrate (ThermoFisher, Cat. No. #32132) for 10 min before developing on a LICOR Scanner.

[5] = EDTA-treated permeabilized cells (Triton X-100)
[6] = competition: 1 μl/ml mAb pre-incubated with 10 μl/ml peptide for 1 hour

T1 sequence (Q00987 whole entry): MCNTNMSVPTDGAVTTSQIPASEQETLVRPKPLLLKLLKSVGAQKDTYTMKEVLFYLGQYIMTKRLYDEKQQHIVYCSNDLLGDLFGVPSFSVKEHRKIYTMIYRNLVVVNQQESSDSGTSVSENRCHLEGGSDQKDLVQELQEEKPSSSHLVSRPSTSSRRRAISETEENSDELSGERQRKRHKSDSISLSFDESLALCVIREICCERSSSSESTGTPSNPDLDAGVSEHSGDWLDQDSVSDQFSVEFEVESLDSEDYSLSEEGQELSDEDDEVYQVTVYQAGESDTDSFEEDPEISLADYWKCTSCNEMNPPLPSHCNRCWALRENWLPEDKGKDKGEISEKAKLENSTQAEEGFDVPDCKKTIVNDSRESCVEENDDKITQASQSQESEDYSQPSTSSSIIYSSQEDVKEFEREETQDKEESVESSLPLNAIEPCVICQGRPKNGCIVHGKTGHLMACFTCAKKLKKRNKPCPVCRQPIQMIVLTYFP

| Molecule | binding to NMC-P1 peptide [1] | growth inhibitory effect ([2]; 1 μg/mL antibody) [%] | growth inhibitory effect ([2]; 5 μg/mL antibody) [%] | growth inhibitory effect ([2]; 10 μg/mL antibody) [%] | % cells stained ([3]; EDTA-treated intact cells) [%] | % cells stained [3, 5] [%] | staining of trypsin-treated permeabilized cells [3] | % cells stained ([3]; trypsin-treated intact cells) [%] | reactivity with recombinant full-length HDM2-GST protein (immunoblot) [4] | binding of mAb to plate-bound NMC-P1 after pre-incubation with NMC-P1 peptide [1, 6] | binding of mAb to plate-bound NMC-P1 after pre-incubation with NMC-P2 peptide [1, 6] | binding of mAb to plate-bound NMC-P1 after pre-incubation with NMC-P3 peptide [1, 6] | binding to live cells briefly treated with trypsin, flow cytometry ([3]; 7AAD negative) | binding to live (7AAD negative) cells, flow cytometry ([3]; antibody 1 μg/ml) |
| --- | --- | --- | --- | --- | --- | --- | --- | --- | --- | --- | --- | --- | --- | --- |
| B1 | did not bind | 65 | 73 | 77 | 51.2 | 52.85 | compensated | 27 | reacted |  |  |  |  |  |
| B2 | bound; also recorded: strong binding | 65 | 84 | 91 | 70.4 | 75.8 | compensated | 36.8 | reacted | abolished the binding | did not affect the binding | did not affect the binding |  |  |
| B3 |  |  |  |  |  |  |  |  |  |  |  |  | reduced | binding |
